According to PMC5693891:
Blank lines part the entries; values can stand above or below the substance they belong to.

How the values were obtained:
[1] = biological target: FcRn (Homo sapiens) (UniProt P55899); conditions: cited from earlier work
[2] = biological target: 1-D1-15 (Fc mutant, monomer/dimer mixture) T366H; Leu368 unchanged; Leu351 not mutated to Ser; position 395 is Lys or Arg by library design; residues at 409, 428 and 434 not stated in the text (Figure 2B only) (UniProt P01857); assay: Bio-layer interferometry (Octet-Red96, Pall ForteBio); conditions: pH 6.0; 37°C; PBS (composition not stated); PBS adjusted to pH 6.0 or pH 7.4 (same buffer at both pH)
[3] = biological target: 1-B10-9 (new monomeric IgG1 Fc) T366R;L368H;P395K;K409T;M428L (UniProt P01857); assay: as above; conditions: pH 6.0; 37°C; PBS (composition not stated); PBS adjusted to pH 6.0 or pH 7.4 (same buffer at both pH)
[4] = biological target: wild-type IgG1 Fc (dimeric) (UniProt P01857); assay: as above; conditions: pH 6.0; 37°C; PBS (composition not stated); PBS adjusted to pH 6.0 or pH 7.4 (same buffer at both pH)
[5] = biological target: mFc (previously reported monomeric IgG1 Fc) L351S;T366R;L368H;P395K (UniProt P01857); assay: as above; conditions: pH 6.0; 37°C; PBS (composition not stated); PBS adjusted to pH 6.0 or pH 7.4 (same buffer at both pH)
[6] = biological target: soluble human neonatal Fc receptor (FcRn) (human) (UniProt P55899); assay: BLI; Octet-Red96, biotin-labeled human FcRn on streptavidin tips, Fc proteins 10 to 0.625 µM as analytes, PBS with 0.02% Tween 20, pH 6.0, 37°C, 1:1 model

Substance: IgG1 Fc Fc (from UniProt P01857)
Kd [1]: 110 nM

kon [2]: 3800 M⁻¹ s⁻¹
koff [3]: 0.00056 s⁻¹
kon [3]: 1100 M⁻¹ s⁻¹
koff [4]: 0.0003 s⁻¹
kon [4]: 1100 M⁻¹ s⁻¹
koff [5]: 0.00064 s⁻¹
kon [5]: 1200 M⁻¹ s⁻¹
Substance: neonatal Fc receptor (FcRn), soluble, biotinylated

Kd [6]: 260 nM
koff [6]: 0.0003 s⁻¹
kon [6]: 1100 M⁻¹ s⁻¹
Substance: wild-type dimeric IgG1 Fc (domain or fragment)
